Experimental data reported in PMC8754118, “The PqsE-RhlR Interaction Regulates RhlR DNA Binding to Control Virulence Factor Production in Pseudomonas aeruginosa” (Microbiology Spectrum, 2022).

B1: RhlR bound to meta-bromo-thiolactone (RhlR:mBTL) (receptor)
chain: MRNDGGFLLWWDGLRSEMQPIHDSQGVFAVLEKEVRRLGFDYYAYGVRHTIPFTRPKTEVHGTYPKAWLERYQMQNYGAVDPAILNGLRSSEMVVWSDSLFDQSRMLWNEARDWGLCVGATLPIRAPNNLLSVLSVARDQQNISSFEREEIRLRLRCMIELLTQKLTDLEHPMLMSNPVCLSHREREILQWTADGKSSGEIAIILSISESTVNFHHKNIQKKFDAPNKTLAAAYAAALGLI

What was measured:
[1] = test system: RhlR:mBTL;PqsE (Pseudomonas aeruginosa;Pseudomonas aeruginosa); assay: EMSA; settings: scale: fold higher affinity than RhlR:mBTL alone
6x-His-PqsE (wild type) = 6x-His-PqsE (wild type) (P. aeruginosa, UniProt P20581 1-301); assay: cell-based or functional assay
6x-His-PqsE(E182W) = 6x-His-PqsE(E182W) (P. aeruginosa, UniProt P20581 1-301, E182W); assay: cell-based or functional assay
6x-His-PqsE(E182W/S285W) = 6x-His-PqsE(E182W/S285W) (P. aeruginosa, UniProt P20581 1-301, E182W | S285W); assay: cell-based or functional assay

Molecule	binding signal [1]	bioluminescence from prhlA-luxCDABE in E. coli carrying rhlR and pqsE, 500 nM C4HSL, against the strain lacking PqsE (6x-His-PqsE (wild type)) [fold]	bioluminescence from prhlA-luxCDABE in E. coli carrying rhlR and pqsE(E182W), 500 nM C4HSL, against the no-PqsE control strain (6x-His-PqsE(E182W)) [fold]	bioluminescence from prhlA-luxCDABE in E. coli carrying rhlR and pqsE(E182W/S285W), 500 nM C4HSL, against the no-PqsE control strain (6x-His-PqsE(E182W/S285W)) [fold]
rhlA promoter EMSA probe	5			
B1		42	~11	~11
